Assay results as given in paper PMC9817231.
Read-outs that look alike come from different tables or passages of the source.

B1: SL1 (structured_RNA)
RNA: GGGUUUAUACCUUCCCAGGUAACAAACCC
B2: SL1-4 (structured_RNA)
RNA: GGUUUAUACCUUCCCAGGUAACAAACCAACCAACUUUCGAUCUCUUGUAGAUCUGUUCUCUAAACGAACUUUAAAAUCUGUGUGGCUGUCACUCGGCUGCAUGCUUAGUGCACUCACGC

Assays:
[1] = molecular target: T1, FL-Nsp1 (non-structural protein 1) (SARS-CoV-2, UniProt P0DTD1 1-180); assay: NMR
[2] = molecular target: T1, FL-Nsp1 (non-structural protein 1); assay: NMR; remark: listed apart in the source

| Binder | binding result [1] | binding result [2] |
| --- | --- | --- |
| B1 | no binding |  |
| B2 |  | no binding |
